These results are taken from PMC2191632 (The Journal of Experimental Medicine, 1994).

One may read the IC50 as the concentration at which inhibition is half-maximal. The low end stands for inhibition by little substance, the high end for a need for much substance. The term Kd denotes the equilibrium constant for the complex coming apart. Higher therefore signals a looser complex.

Where no end group is shown, it is not given here.

Data set [1] has as its target DRB1*0405 complex (HLA-DR4, DRA-DRB1*0405) (Homo sapiens, UniProt P01903+P01911, A100R/A169T/D86S/F76Y/I96L/K127E/L162R/M171V/N62H/P40V/Q125Y/R42H/S133A/S149N/S66Y/V115G/V209L/W38E). In kind it is binding.
Data set [2] addresses DRB1*0406 complex (Homo sapiens, UniProt P01903+P01911, A100R/A103E/A169T/F76Y/I96L/K127E/L162R/M171V/N62H/P40V/Q125Y/R42H/S133A/S149N/V209L/W38E). In kind it is binding.
Data set [3] in a line: Solubility of polyalanine-based peptide. In kind it is physicochemical. As to conditions: in words; lysine then inserted at NH2 terminus to increase solubility.
Data set [4] has as its target HLA-DR4 (DRA-DRB1*0406 complex) (human (endogenous in KT13)). The data set is described as follows: radioligand binding.
The target in data set [5] is HLA-DR4 (DRA-DRB1*0405 complex) (human (endogenous in EBWa)). The data set can be described thus: radioligand binding.

With AAFAAMASAA, the values for the half-inhibitory concentration (IC50) in data set [1] and in data set [2] were 3.6 µM and 1.1 µM, respectively. Take AAYAAVAVAA: in data set [3], the Solubility result is given as “not soluble”.

KAAYAAVAVAA: the IC50 in data set [1] is 5.1 µM; in data set [2], 12.2 µM. In the same order, the values of AAYAALANAA are 1.4 µM and 5 µM. In the case of K-Ins beta p1-18 (…) (peptide), the IC50 in data set [4] is greater than 500 µM. Turning to AALAAIASAA, the figures for the IC50 in data set [1] and in data set [2] were 11 µM and 8.8 µM, respectively.

For AALAAIASAA, the half-inhibitory concentration (IC50) in data set [4] was 8.8 µM. On the same count and under the same terms, in the case of KLVEALYLVCGERGFFYTPKT [K-Ins beta p11-30 (…)] it was 14.5 µM. Consider SDPILYRPVAVALDTKGPE [PKM2p99-117 (…), unlabeled], for which the percent inhibition of 125I-0405BP3 binding at 20 uM in data set [5] worked out at 90%; in data set [4], 71%.

Take VPIQRAVYQNVVVNN [0405BP1 (…), unlabeled]: the percent inhibition of 125I-0405BP3 binding at 20 uM in data set [5] came to 103%; in data set [4] it was 70%.

AAKAAKAGAA returned an IC50 in data set [4] greater than 500 µM. SPGTGAYYVLLN [0405BP2 (…)]: the percent inhibition of 125I-0405BP3 binding at 20 uM in data set [5] stood at 93%; in data set [4] it was 85%. The molecule KKTSICSLYQLE [KK-Ins alpha p8-17 (…)] displayed an IC50 in data set [4] of 4.1 µM.

Take AAYAALANAA: in data set [4], the IC50 was found to be 5 µM.

On to KGIVEQCCTSI [K-Ins alpha p1-10 (…)], for which, in data set [4], the IC50 is greater than 500 µM. Same read-out and setting: in the case of KSLYQLENYCN [K-Ins alpha p12-21 (…)] it was 12 µM; in that of AAFAAMASAA, 1.1 µM. As for EGQLVSIHSPEEQDFLTKHA [CD23p195-214 (…)], the values for the percent inhibition of 125I-0405BP3 binding at 20 uM in data set [5] and in data set [4] were 59% and 63%, respectively. The corresponding values for NELSGEAHKDALGKLY [irrelevant peptide (…), unlabeled] are 1% and 2%. The corresponding values for GPKPLFRRMSSLVGPTQSFF [CD20p26-45 (…)] are 90% and 96%. In data set [5], GSTVFDNLPNPEIDGDYYGW [0405BP3 (…), unlabeled] had a Kd of 0.07 µM. For the same molecule, the percent inhibition of 125I-0405BP3 binding at 20 uM in data set [5] was 97%; in data set [4], 96%. Take GSTVFDNLPAPE [… with 10th N to A]: in data set [5], the percent by which the substitution inhibited binding (against …) is 70%. In turn, KAAYAAVAVAA came in with an IC50 in data set [4] of 12.2 µM.
